Measurements published in US20080221021A1, “Novel Corticotropin-Releasing Factor Receptor 1 (Crfr1) Agonist” (Max-Planck-Gesellschaft Zur Forderung Der, priority 2004, published 2008).

Assays:
rat CRFR1α (rat) [1] = target: rat CRFR1α (rat) (UniProt P35353); assay: competition binding
mouse CRFR2β (mouse) [2] = target: mouse CRFR2β (mouse) (UniProt Q60748); assay: competition binding
rat CRFR1α (rat) [3] = target: rat CRFR1α (rat) (UniProt P35353); assay: competition binding; selectivity for CRFR1 over CRFR2, reference h/rCRF; data not shown
rat CRFR1α (rat) [4] = target: rat CRFR1α (rat) (UniProt P35353); assay: competition binding (SPA); selectivity for rCRFR1 over mCRFR2β, reference h/rCRF
rat CRFR1α (rat) [5] = target: rat CRFR1α (rat) (UniProt P35353); assay: competition binding against [125I-Tyr0]h/rCRF, SPA; reference compound 6
mouse CRFR2β (mouse) [6] = target: mouse CRFR2β (mouse) (UniProt Q60748); assay: competition

Sequence of rat CRFR1α (rat) (P35353 24-415): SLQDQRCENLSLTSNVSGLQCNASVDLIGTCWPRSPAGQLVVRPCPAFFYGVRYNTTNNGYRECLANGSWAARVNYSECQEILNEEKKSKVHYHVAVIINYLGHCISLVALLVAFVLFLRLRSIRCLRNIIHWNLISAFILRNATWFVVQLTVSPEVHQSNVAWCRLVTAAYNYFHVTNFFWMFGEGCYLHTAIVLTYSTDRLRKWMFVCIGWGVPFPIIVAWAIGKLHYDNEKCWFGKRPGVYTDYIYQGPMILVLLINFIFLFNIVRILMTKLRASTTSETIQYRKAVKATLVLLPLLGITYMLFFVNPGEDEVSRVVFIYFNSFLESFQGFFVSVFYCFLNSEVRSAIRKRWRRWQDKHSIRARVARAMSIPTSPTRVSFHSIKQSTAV
Sequence of mouse CRFR2β (mouse) (Q60748 20-411): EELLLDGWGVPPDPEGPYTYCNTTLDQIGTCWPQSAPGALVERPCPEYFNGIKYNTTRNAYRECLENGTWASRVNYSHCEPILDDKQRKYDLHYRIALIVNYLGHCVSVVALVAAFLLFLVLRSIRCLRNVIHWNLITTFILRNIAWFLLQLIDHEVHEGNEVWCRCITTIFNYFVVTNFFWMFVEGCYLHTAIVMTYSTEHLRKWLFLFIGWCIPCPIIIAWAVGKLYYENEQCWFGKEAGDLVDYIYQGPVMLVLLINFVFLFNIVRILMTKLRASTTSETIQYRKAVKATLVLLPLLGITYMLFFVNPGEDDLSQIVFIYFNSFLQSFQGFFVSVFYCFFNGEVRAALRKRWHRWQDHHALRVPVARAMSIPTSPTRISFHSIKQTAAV
Sequence of human/rat corticotropin-releasing factor (P06850 154-194): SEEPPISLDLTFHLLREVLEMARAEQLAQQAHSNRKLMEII

Row | Substance | IC50 (rat CRFR1α (rat) [1]) | IC50 (mouse CRFR2β (mouse) [2]) | also measured
1 | [Svg^1-12]x[h/rCRF^14-30]x[Svg^30-40] (from UniProt P01144 1-12; P06850 167-183; P01144 30-40) | 9.5 nM | 700 nM | 
2 | [Ala^41]h/rCRF (from UniProt P06850 154-194) (peptide) |  |  | fold increase in CRFR1 selectivity against h/rCRF (rat CRFR1α (rat) [3]): 3 fold
3 | [Svg^1-29]x[h/rCRF^31-41] (from UniProt P01144 1-29; P06850 184-194) | 1.8 nM | 0.98 nM | 
4 | [h/rCRF^1-30]x[Svg^30-40] (from UniProt P06850 154-183; P01144 30-40) | 2 nM | 330 nM | 
5 | ovine corticotropin-releasing factor (peptide) |  |  | fold higher selectivity for CRFR1 than h/rCRF (rat CRFR1α (rat) [4]): 3 fold
6 | [Ala^40] [Svg^1-12]x[h/rCRF^14-30]x[Svg^30-40] (peptide) |  |  | fold increase in affinity against compound 6 (rat CRFR1α (rat) [5]): > 5 fold
7 | human/rat corticotropin-releasing factor (from UniProt P06850 154-194) | 1.6 nM |  | IC50 (mouse CRFR2β (mouse) [6]): 42 nM
8 | [h/rCRF^1-13]x[Svg^13-29]x[h/rCRF^31-41] (from UniProt P06850 154-166; P01144 13-29; P06850 184-194) | 0.47 nM | 0.69 nM | 
